T1: GFP-9S library array, motif 4 ND D124Q (synthetic construct, D124Q)
T1 chain: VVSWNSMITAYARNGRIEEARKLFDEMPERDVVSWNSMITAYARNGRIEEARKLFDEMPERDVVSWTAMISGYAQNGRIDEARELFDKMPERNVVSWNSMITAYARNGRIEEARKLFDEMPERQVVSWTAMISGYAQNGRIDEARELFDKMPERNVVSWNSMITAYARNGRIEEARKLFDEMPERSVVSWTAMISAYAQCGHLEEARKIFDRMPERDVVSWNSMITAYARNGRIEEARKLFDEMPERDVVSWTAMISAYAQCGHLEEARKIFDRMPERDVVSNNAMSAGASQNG

T2: GFP-9S library array, motif 4 ND N98M;D124H (synthetic construct, N98M;D124H)
T2 chain: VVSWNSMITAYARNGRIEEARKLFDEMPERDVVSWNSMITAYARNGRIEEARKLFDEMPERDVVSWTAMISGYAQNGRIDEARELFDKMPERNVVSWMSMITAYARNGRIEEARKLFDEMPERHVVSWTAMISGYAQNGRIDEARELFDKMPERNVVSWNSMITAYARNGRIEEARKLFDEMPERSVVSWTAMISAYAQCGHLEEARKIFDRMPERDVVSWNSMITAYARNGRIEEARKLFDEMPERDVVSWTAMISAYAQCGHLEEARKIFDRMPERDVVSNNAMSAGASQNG

T3: GFP-9S library array, motif 4 ND N98P;D124R (synthetic construct, N98P;D124R)
T3 chain: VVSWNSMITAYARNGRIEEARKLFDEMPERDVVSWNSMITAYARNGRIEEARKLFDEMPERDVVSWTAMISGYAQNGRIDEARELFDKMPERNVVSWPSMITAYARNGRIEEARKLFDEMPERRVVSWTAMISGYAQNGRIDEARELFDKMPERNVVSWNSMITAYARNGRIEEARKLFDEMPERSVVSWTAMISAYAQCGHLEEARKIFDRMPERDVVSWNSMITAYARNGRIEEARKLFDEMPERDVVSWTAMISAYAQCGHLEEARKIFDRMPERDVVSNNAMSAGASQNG

T4: GFP-9S library array, motif 4 ND N98A;D124W (synthetic construct, N98A;D124W)
T4 chain: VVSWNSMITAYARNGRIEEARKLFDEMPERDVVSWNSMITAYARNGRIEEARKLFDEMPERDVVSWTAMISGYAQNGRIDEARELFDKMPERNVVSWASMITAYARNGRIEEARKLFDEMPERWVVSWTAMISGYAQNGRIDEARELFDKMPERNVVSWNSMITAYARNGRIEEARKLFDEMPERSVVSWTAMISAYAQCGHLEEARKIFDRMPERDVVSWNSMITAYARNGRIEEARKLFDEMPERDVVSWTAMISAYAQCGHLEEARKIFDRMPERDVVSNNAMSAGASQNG

T5: GFP-9S library array, motif 4 ND N98Q;D124N (synthetic construct, N98Q;D124N)
T5 chain: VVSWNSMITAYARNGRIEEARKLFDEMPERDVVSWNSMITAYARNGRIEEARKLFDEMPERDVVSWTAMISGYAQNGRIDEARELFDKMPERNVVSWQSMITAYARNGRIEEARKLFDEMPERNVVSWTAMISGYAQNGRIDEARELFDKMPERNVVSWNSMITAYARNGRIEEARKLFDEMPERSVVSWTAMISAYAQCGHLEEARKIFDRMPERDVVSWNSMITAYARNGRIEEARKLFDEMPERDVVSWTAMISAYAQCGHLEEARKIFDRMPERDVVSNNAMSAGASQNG


Legend:
Assay in all cases: high-throughput RNA pulldown from lysate on Ni-NTA beads; HRP: 50 mM Tris pH 8, 150 mM NaCl, 1 mM beta-mercaptoethanol, 50 ug/ml BSA, 3 ug/ml yeast RNA, 0.5% heparin; ITC and FP: Tris pH 8, 200 mM KCl, 5% glycerol; MST: 50 mM Tris pH 8, 200 mM NaCl, 1 mM DTT, BSA, heparin, 0.05% Tween 20
Details in all cases: tags: N-terminal His-eGFP
[1] = molecular target: T1, GFP-9S library array, motif 4 ND D124Q
[2] = molecular target: T2, GFP-9S library array, motif 4 ND …
[3] = molecular target: T3, GFP-9S library array, motif 4 ND …
[4] = molecular target: T4, GFP-9S library array, motif 4 ND …
[5] = molecular target: T5, GFP-9S library array, motif 4 ND …

| Binder | Kd ([1]; label: 5' IRDye 800CW) [nM] | Kd ([2]; label: 5' IRDye 800CW) [nM] | Kd ([3]; label: 5' IRDye 800CW) [nM] | Kd ([4]; label: 5' IRDye 800CW) [nM] | Kd ([5]; label: 5' IRDye 800CW) [nM] | Kd ([1]; label: 5' Cy5) [nM] | Kd ([2]; label: 5' Cy5) [nM] | Kd ([3]; label: 5' Cy5) [nM] | Kd ([4]; label: 5' Cy5) [nM] | Kd ([5]; label: 5' Cy5) [nM] |
| --- | --- | --- | --- | --- | --- | --- | --- | --- | --- | --- |
| AUUAUACGUGA (ssRNA) [IR-rpoA-U] | 25.9 | 412 | 245 | 149 | 99.2 |  |  |  |  |  |
| AUUAGACGUGA (ssRNA) [Cy5-rpoA-G] |  |  |  |  |  | 898 | 257 | 166 | 104 | 68.6 |
| AUUACACGUGA (ssRNA) [Cy5-rpoA] |  |  |  |  |  | 68 | 242 | 151 | 129 | 94.7 |
| AUUAAACGUGA (ssRNA) [IR-rpoA-A] | 490 | 574 | 329 | 138 | 118 |  |  |  |  |  |

Source: publication PMC8809517, “Cofactor-independent RNA editing by a synthetic S-type PPR protein”
